Changes are numbered by the printed parent chain. In names and notes the source's numbering stands.
Columns and labels:
colon cancer DLD-1 cells = assay: Cytocidal effect of anti-TMEM-180 IgM antibody (WST-8), DLD-1; format: cell-based, human; details: hybridoma culture supernatant adjusted to 80, 20 or 5 μg/mL, 96 hours, FIGS. 7 and 8
Description: (§1) DLD-1 cells and K562 cells were added to a 96-well plate at 1×10^3 cells/100 μL/well followed by culturing for 24 hours. 50 μL of medium were removed from each well of the 96-well plate followed by the addition of rat IgM antibody clone 98-producing hybridoma culture supernatant or rat IgM antibody clone 101-producing hybridoma culture supernatant, in which antibody concentration had been adjusted to 80 μg/mL, 20 μg/mL or 5 μg/mL, at 50 μL/well. Here, n number in each culture condition was 3, and wells containing medium only were prepared as controls. […] After culturing for 96 hours, WST-8 (Dojindo Laboratories, Cell Counting Kit-8) was added at 10 μL/well followed by measuring absorbance at 450 nm with a microplate reader after culturing for 3 hours. The relative values of absorbance at each antibody concentration were plotted by plotting antibody concentration on the horizontal axis and assigning a value of 1 to the optical absorbance of the well containing medium only. […] Cytocidal effects were also observed for other colon cancer cells Difi, Carl, SW480 and Colo201.

brain tumor cell lines = assay: Flow cytometry (FACS) with anti-TMEM-180 IgM clones, brain tumor; format: binding; details: four types of brain tumors; FIG. 3
Description: (§2) Cancer cells targeted for measurement were cultured in medium and then added to a V-bottom 96-well plate (Corning Incorporated) to a concentration of 1×10^5 cells/well. The plate was centrifuged for 3 minutes at 440×g and 4° C. followed by removing the supernatant, adding antibody-producing hybridoma culture supernatant or antibody solution to the cell pellet at 50 μL/well and suspending therein. After allowing to react for 45 minutes on ice, the plate was washed three times with a mixture of 0.1% BSA, 2 mM EDTA and PBS at 200 μL/well. The supernatant was removed and secondary antibody was added to the cell pellet at 50 μL/well followed by suspending the cells therein. ALEXAFLUOR 647@ (fluorescent compound) goat anti-rat IgG (H-L) (Life Technologies Corporation) was used for the secondary antibody after diluting 400-fold with a mixture of 0.1% BSA, 2 mM EDTA and PBS. After allowing to react for 45 minutes on ice, the plate was washed three times with a mixture of 0.1% BSA, 2 mM EDTA and PBS at 200 μL/well. After removing the supernatant, 50 ng/mL of propidium iodide, 0.1% BSA, 2 mM EDTA and PBS were added to the cell pellet at 250 µL/well followed by suspending therein. The cells stained in this manner were measured using a flow cytometer such as the Guava easyCyte 8HT (Merck Millipore Corporation) followed by analysis of the resulting data using FlowJO (Tomy Digital Biology Co., Ltd.). FACS analysis was carried out using colon cancer, brain tumor and hematologic cancer.

colon cancer cell lines = assay: Flow cytometry (FACS) with anti-TMEM-180 IgM clones, colon cancer; format: binding; details: six types of colon cancers; FIG. 3
Description: as §2

[1] = system: hematologic tumor K562 cells; assay: Cytocidal effect of anti-TMEM-180 IgM antibody (WST-8), K562; format: cell-based; details: hybridoma culture supernatant adjusted to 80, 20 or 5 μg/mL, 96 hours, FIGS. 7 and 8
Description: as §1

[2] = system: human colon cancer formalin-fixed section; assay: Immunostaining of formalin-fixed section of human colon cancer surgical specimens; format: binding; details: 1 μg/mL, FIG. 6
Description: Anti-TMEM-180 IgM rat antibody (clone 98) was reacted with a colon cancer formalin-fixed section at 1 μg/mL. HRP-labeled anti-rat antibody was used as secondary antibody and the section was stained with DAB followed by post-staining with hematoxylin.

DLD-1 colon cancer cells = assay: Fluorescent immunostaining of DLD-1 colon cancer cells; format: binding, human; details: fixed and permeabilized DLD-1; antibody concentrations of clones not aligned; FIG. 4
Description: DLD-1 cells were added to a 96-well plate (Corning Incorporated, CeIIBIND) to a concentration of 5×10^3 cells/well and subjected to cell staining after culturing for 2 days. The cells were subjected to fixation and permeation treatment in the manner indicated below. After washing the cell culturing plate twice with PBS at 200 μL/well, the washings were removed followed by the addition of 4% para-formaldehyde-phosphate buffer (Wako Pure Chemical Industries, Ltd.) containing 0.1% TRITON™ (surfactant) X-100 (Wako Pure Chemical Industries, Ltd.) at 100 µL/well while cooling with ice and fixing the cells for 10 minutes. After removing the fixation solution, the plate was washed once with PBS at 200 μL/well and once with a mixture of 1% FBS in PBS at 200 μL/well to obtain a cell-immobilized plate. The cells were stained in the manner indicated below. Namely, after removing medium from the non-immobilized cell culturing plate and removing washings from the cell-immobilized plate, […] hybridoma culture supernatant or diluted antibody solution was added at 50 μL/well. After allowing to react for 1 hour on ice, the plate was washed once with PBS at 200 μL/well and twice with a mixture of 1% FBS in PBS at 200 μL/well. After removing the washings, a mixture of 5 μg/mL ALEXAFLUOR 647@ (fluorescent compound) goat anti-rat IgG (H-L), 2 μg/mL Hoechst 33342 and 1% FBS/PBS was added at 50 μL/well. After allowing to react for 1 hour on ice, the plate was washed twice with PBS at 200 μL/well. PBS was then added at 50 μL/well followed by measuring with ArrayScan (Thermo Fisher Scientific Inc.).

TMEM-180 = target: T1, TMEM-180 (Homo sapiens, UniProt Q14CX5); assay: FACS of DLD-1 parent line and TMEM-180 knockout line; format: binding
T1 construct: endogenous in cells; host or cells: DLD-1 colon cancer cell line (parent / wild type); culture supernatant exosomes in A20
T1 sequence (Q14CX5 1-517): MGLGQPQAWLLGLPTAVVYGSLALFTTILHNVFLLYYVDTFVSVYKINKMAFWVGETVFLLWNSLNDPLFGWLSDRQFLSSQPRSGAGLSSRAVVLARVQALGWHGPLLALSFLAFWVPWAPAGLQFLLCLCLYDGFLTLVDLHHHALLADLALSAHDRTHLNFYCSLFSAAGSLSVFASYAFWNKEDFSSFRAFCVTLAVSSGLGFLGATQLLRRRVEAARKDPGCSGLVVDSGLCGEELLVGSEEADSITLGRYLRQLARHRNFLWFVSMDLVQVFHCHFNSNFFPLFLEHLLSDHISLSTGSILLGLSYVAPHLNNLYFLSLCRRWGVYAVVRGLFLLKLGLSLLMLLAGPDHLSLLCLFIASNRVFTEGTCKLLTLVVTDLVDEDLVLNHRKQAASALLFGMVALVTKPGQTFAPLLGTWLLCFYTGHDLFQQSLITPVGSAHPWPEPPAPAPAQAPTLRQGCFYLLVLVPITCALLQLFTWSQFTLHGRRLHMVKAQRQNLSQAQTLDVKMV
Description: The plate was centrifuged for 3 minutes at 440×g and 4° C. followed by removing the supernatant, adding antibody-producing hybridoma culture supernatant or antibody solution to the cell pellet at 50 μL/well and suspending therein. After allowing to react for 45 minutes on ice, the plate was washed three times with a mixture of 0.1% BSA, 2 mM EDTA and PBS at 200 μL/well. The supernatant was removed and secondary antibody was added to the cell pellet at 50 μL/well followed by suspending the cells therein. […] After allowing to react for 45 minutes on ice, the plate was washed three times with a mixture of 0.1% BSA, 2 mM EDTA and PBS at 200 μL/well. […] The cells stained in this manner were measured using a flow cytometer such as the Guava easyCyte 8HT (Merck Millipore Corporation) followed by analysis of the resulting data using FlowJO (Tomy Digital Biology Co., Ltd.). FACS analysis was carried out using colon cancer, brain tumor and hematologic cancer.
Flow cytometry was carried out in accordance with the procedure described in the above-mentioned section 3. […] The supernatant of a culture of hybridoma producing rat IgM antibody clone 365 was used as a negative control after similarly diluting to 1 μg/mL. […] A mixture of RPMI and 10% FBS was used to dilute each of the antibodies. Furthermore, antibody concentration in the hybridoma culture supernatant was measured by rat IgM-specific ELISA (Bethyl Laboratories).

wild type DLD-1 cells = assay: ADCC activity (51Cr release, TK176V effector cells), wild type DLD-1; format: cell-based, human; details: ET ratio 40; 4 hours; 0.064 to 1,000 ng/mL; FIGS. 20A to 20D
Description: Specifically, TK176V (a natural killer cell line stably expressing FcγRIII) was used as an effector cell, which was obtained from Chemicals Evaluation and Research Institute, Japan. The wild type DLD-1 cell line was used as a target cell.
T1 76V was cultured in RPM11640 containing 10 ng/mL IL-2 and 10% FBS. For passages, the medium was diluted with a fresh medium every 2 to 3 days. In the passage, the cells were detached by a trypsin treatment and then suspended in a fresh medium to be plated on a dish every 2 to 3 days.
The measurement of the ADCC activity was performed as described below.
First, the amount of 51Cr release was measured when only the target cells were cultured in medium as a negative control, which is referred to as “Spontaneous release measurement”. The amount of 51 Cr release was measured when the all target cells were damaged by adding 0.1% TRITON™ (surfactant) X-100, which is referred to as “Max release measurement.”
1) Adding DLD-1 WT labelled with 50 μCi of ^51Cr to a U-bottom, 96 well plate at 5,000 cells/50 μL/well.
2) Adding TK176V at 200,000 cells/50 μL/well (ET ratio: 40): A medium was added at 50 μL/well to the well for Spontaneous release measurement and the well for Max release measurement. […]

B1: clone 98: rat IgM anti-TMEM-180 monoclonal antibody; heavy chain variable region SEQ ID NO: 13, light chain variable region SEQ ID NO: 14 (antibody, V domains shown)
VH: MAVLVLLLCLVTFPTCVLSQVQLKESGPGLVQPSQTLSLTCTVSGFSLTRYNVHWVRQPTGKGLEWMGVIWTGGSTDYNSALKSRLSISRDTSKSQVFLKMNSLQTEDIATYYCARDLGYWGQGVMVTVSS
VL: MMSPAQFLFLLMLWIQETHSDIVMTQTPLSLSVAIGQSASISCKSSQSLKYRDGKTYLNWVFQSPGQSPKRLIYQVSKLDSGVPDRFSGTGSETDFTLKISRVEAEDLGVYYCCQGSYSPHTFGAGTKLELK
cytocidal effects against DLD-1 cells (colon cancer DLD-1 cells): demonstrated cytocidal effects | FACS reactivity to brain tumors (brain tumor cell lines): all four types of brain tumors | FACS reactivity to colon cancers (colon cancer cell lines): positive for all six types of colon cancers | cytocidal effects against K562 cells [1]: did not demonstrate cytocidal effects | staining of colon cancer section ([2]; DAB): stained specifically | localisation of staining in colon cancer cells [2]: Both the cell membrane and cytoplasm of the colon cancer cells were stained | fluorescent immunostaining (pattern, intensity) (DLD-1 colon cancer cells): stained primarily in the membrane | FACS shift, TMEM-180 knockout line versus parent line (TMEM-180; DLD-1 parent line vs TMEM-180 knockout line, FIG. 5): considerable left shift | specific recognition of TMEM-180 (TMEM-180; conclusion from DLD-1 parent vs knockout FACS): specifically recognize TMEM-180

B2: clone 101: rat IgM anti-TMEM-180 monoclonal antibody; variable regions SEQ ID NOs: 15 and 16 (antibody, V domains shown)
VH: MAILVLLLCLVTIPHSVLSQVQLKETGPGLVQPTQTLSITCTVSGFSLTSYYMQWVRQTPGKGLEWMGFIRSGGSTEYNSEFKSRLSISRDTSKNQVFLKMNSLKTEDTGVYYCARAFYGGYYFDYWGQGVMVTVSS
VL: MGIRMESHTRVFIFLLLWLSGADGDIVMTQSPTSISISVGERVTMNCKASQNVGSNVDWYQQKTGQSPKLLIYKASNRYTGVPDRFTGSGSGTDFTFTISNMQAEDLAVYYCMQSNTKYTFGAGTKLELK
cytocidal effects against DLD-1 cells (colon cancer DLD-1 cells): demonstrated cytocidal effects | FACS reactivity to brain tumors (brain tumor cell lines): negative for all of the brain tumors | FACS reactivity to colon cancers (colon cancer cell lines): positive for four types of colon cancers | cytocidal effects against K562 cells [1]: did not demonstrate cytocidal effects | fluorescent immunostaining (pattern, intensity) (DLD-1 colon cancer cells): weaker fluorescence intensity than clone 98 and the cytoplasm was also stained

B3: Variant 1: Fc-modified clone of 1361-5 with triple substitutions S239D/A330L/1332E in the Fc region (antibody)
heavy: EVQLVESGGGLVQPGRSLKLSCVASGFTFNNYWMTWIRQAPGKGLEWVASITNTGGSTAYPDSVKGRFTISRDYAKSTLYLQMNSLRSEDTATYYCTRAGYSSYPDYFDYWGQGVMLTVSSASTKGPSVFPLAPSSKSTSGGTAALGCLVKDYFPEPVTVSWNSGALTSGVHTFPAVLQSSGLYSLSSVVTVPSSSLGTQTYICNVNHKPSNTKVDKKVEPKSCDKTHTCPPCPAPELLGGPDVFLFPPKPKDTLMISRTPEVTCVVVDVSHEDPEVKFNWYVDGVEVHNAKTKPREEQYNSTYRVVSVLTVLHQDWLNGKEYKCKVSNKALPLPEEKTISKAKGQPREPQVYTLPPSRDELTKNQVSLTCLVKGFYPSDIAVEWESNGQPENNYKTTPPVLDSDGSFFLYSKLTVDKSRWQQGNVFSCSVMHEALHNHYTQKSLSLSPGK
light: MMAPVQLLGLLLLWLPAMRCNIQMTQSPSLLSASVGDRVTLSCKAGQNIYNYLAWYQQKLGEAPKLLIYNANSLQTGIPSRFSGSGSGTDFTLTISSLQPEDVATYFCQQYSSGWTFGGGTKLELKRTVAAPSVFIFPPSDEQLKSGTASVVCLLNNFYPREAKVQWKVDNALQSGNSQESVTEQDSKDSTYSLSSTLTLSKADYEKHKVYACEVTHQGLSSPVTKSFNRGEC
ADCC activity against wild type DLD-1 cells (wild type DLD-1 cells): equal to or stronger than that of the 1361-5 antibody

B4: Variant 2: Fc-modified clone of 1361-5 with triple substitutions S239D/1332E/E333A in the Fc region (antibody)
heavy: B3 heavy with L334A, E337A
light: B3 light
ADCC activity against wild type DLD-1 cells (wild type DLD-1 cells): equal to or stronger than that of the 1361-5 antibody

Reference: patent US11633499B2, “Anti-TMEM-180 antibody, anticancer drug and cancer testing method” (NATIONAL CANCER CENTER JAPAN, priority 2016, dated 2023)
